The record followed here is CN117677637A (PETEMEDI LTD, dated 2024).

Test [1] addresses T1, 犬CD20 (canine CD20, B淋巴细胞抗原CD20, full length, wild type) (canine (dog), UniProt Q3C2E2 1-297).
T1 construct: Stably expressed from full-length cDNA on MDCK II (or HEK293) cells for flow cytometry and ADCC; naturally expressed on CLBL-1 canine lymphoma cells in the CDC assay; also called cCD20; MS4A1
T1 chain: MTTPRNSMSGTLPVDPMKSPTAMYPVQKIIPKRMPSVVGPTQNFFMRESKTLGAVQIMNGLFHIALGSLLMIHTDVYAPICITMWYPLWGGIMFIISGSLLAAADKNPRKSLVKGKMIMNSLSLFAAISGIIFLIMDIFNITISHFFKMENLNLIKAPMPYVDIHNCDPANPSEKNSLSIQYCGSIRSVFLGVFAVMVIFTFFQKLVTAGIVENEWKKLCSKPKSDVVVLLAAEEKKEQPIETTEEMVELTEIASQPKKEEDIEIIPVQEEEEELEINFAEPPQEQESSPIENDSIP
The experiment in a line: flow cytometry on MDCK cells expressing wild-type canine CD20 (positive control of epitope mapping). On the technique in general: A flow cytometer gives signals particle by particle.

Test [2] addresses T1, 犬CD20 (canine CD20, B淋巴细胞抗原CD20, full …). The experiment in a line: flow cytometry, 10 ug/ml antibody on MDCK II cells expressing canine CD20 (Fig 3A); equal to 4E1-7.
The target is the same in test [3]. The experiment in a line: flow cytometry on cells expressing canine CD20, against PMX003 (Fig 3B); unchanged.
Test [4] has the same target. The experiment in a line: flow cytometry on cells expressing canine CD20, against PMX003 (Fig 3B); slight decrease.
The target is the same in test [5]. Put plainly: flow cytometry, 10 ug/ml antibody on MDCK II cells expressing canine CD20 (Fig 3B).

Changes are numbered by the printed parent chain.

B1: PMX003 (antibody, V domains shown)
VH: EVQLVESGGDLVKPGGSLRLSCVASGITFSRYHMSWVRQAPGKGLQWVAYINSGGSSTSYPDAVKGRFTISRDNAKNTLYLQMDSLRAEDTALYYCTTFDYWGQGTLVTVSS
VL: SYVLTQLPSKNVTLKQPAHITCGGDNIGSKSVHWYQQKLGQAPVLIIYYDSRRPTGIPERFSGANSGNTATLTISGALAEDEADYYCQVWDSSANVFGGGTHLTVL
notes: Fully canine mAb; Tested in native form and in an a-fucosylated form (made in Fut8 knockout CHO cells) in CDC/ADCC; also called PMX003 mAb
Consider B1, for which, in test [1], the binding result is given as “binds”.

B2: PMX002 (antibody, V domains shown)
VH: EVQLVESGGDLVKPGGSLRLSCVASGIIFSNYHMSWVRQVPGKGLQWVAYINSGGSTINYADGVKGRFTISRDNAKNSLYLQMNSLRGEDTAVYYCTTYDSWGQGTLVTVSS
VL: B1 VL with R52S, A94V
notes: Fully canine mAb; also called PMX002 mAb
Take B2: in test [2], the binding result was “binds”.

B3: PMX008 (antibody, V domains shown)
VH: B1 VH
VL: B1 VL with N11E
notes: PMX003 heavy chain; Constant regions not restated (PMX003: dog IGGB / dog IGLC5); also called PMX008 mAb; EVT
Consider B3, for which the binding result in test [3] is reported as “binds”.

B4: PMX009 (antibody, V domains shown)
VH: B1 VH
VL: B1 VL with T13A
notes: PMX003 heavy chain; Constant regions not restated (PMX003: dog IGGB / dog IGLC5); also called PMX009 mAb; NVA
As to B4, the binding result in test [3] is on record as “binds”.

B5: PMX007 (antibody, V domains shown)
VH: B1 VH
VL: B1 VL with N11A
notes: PMX003 heavy chain; Constant regions not restated (PMX003: dog IGGB / dog IGLC5); also called PMX007 mAb; AVT突变体
With B5, the binding result in test [4] is recorded as “binds”.

B6: PMX011 (antibody, V domains shown)
VH: B1 VH
VL: B1 VL with N11T
notes: PMX003 heavy chain; Constant regions not restated (PMX003: dog IGGB / dog IGLC5); also called PMX011 mAb; TVT
For the molecule B6, the binding result in test [5] is listed as “binds”.

B7: PMX115 (antibody, V domains shown)
VH: EMQLVESGGALVKPGGSLRLSCVASGFTFRRYHMSWVRQAPGQGLQWVAYIDSDGSPTSYGDSVKGRFTISRDNAKNTLFLQMNSLRVDDTAVYYCTTLDYWGRGTLVTVSS
VL: B1 VL with L7V, N11S, S29G, V44L, S51T, G76R, A94G, L106I
notes: also called PMX115 mAb
With B7, in test [1], the binding result is given as “binds”.

B8: PMX006 (antibody, V domains shown)
VH: B1 VH
VL: B1 VL with N11Q
notes: PMX003 heavy chain; Constant regions not restated (PMX003: dog IGGB / dog IGLC5); also called PMX006 mAb; QVT突变体
B8: the binding result in test [4] is “binds”.
